# B1: SHS006-23 (antibody, V domains shown)
# VH: EVQLVESEGGLVQPGASVKLSCVGSGFSFSDHWMSWVRQTPGKTMEWIGNIQYDGSYTNYAPSLKNRFTISRDNAKNTLYLQMTNLRSEDTATYYCTRGHFRITMASMGASASVYWGQGVMVTVSS
# VL: DIQMTQSPSSLPTSLGDRVTITCRTSQDIGNSLRWFQQKPGKSPRLMIHGATNLANGVPSRFSGSRAGSDYSLTINSLESEDMAMYYCLQHNEYPLTFGSGTKLEIK
# B2: SHS006-23CHI (antibody, V domains shown)
# VH: B1 VH
# VL: B1 VL
# notes: Chimeric antibody with human heavy and light chain constant regions
# B3: HuPL7-21 (antibody, IgG4, V domains shown)
# VH: QVQLQESGPGLVKPSQTLSLTCTVSGDSITSGYWNWIRQHPGKGLEYIGYISYTGSTYYNLSLKSRVTISRDTSKNQFSLKLSSVTAADTAVYYCARYILWLRHFDYWGQGTLVTVSS
# VL: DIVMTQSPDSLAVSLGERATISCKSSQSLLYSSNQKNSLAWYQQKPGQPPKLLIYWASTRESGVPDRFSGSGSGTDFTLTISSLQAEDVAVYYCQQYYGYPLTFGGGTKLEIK
# notes: also called humanized anti-PD-L1 antibody HuPL7-21
# B4: HuPL1642-T2353-ScFv (bispecific antibody, human IgG4 S228P, kappa)
# heavy: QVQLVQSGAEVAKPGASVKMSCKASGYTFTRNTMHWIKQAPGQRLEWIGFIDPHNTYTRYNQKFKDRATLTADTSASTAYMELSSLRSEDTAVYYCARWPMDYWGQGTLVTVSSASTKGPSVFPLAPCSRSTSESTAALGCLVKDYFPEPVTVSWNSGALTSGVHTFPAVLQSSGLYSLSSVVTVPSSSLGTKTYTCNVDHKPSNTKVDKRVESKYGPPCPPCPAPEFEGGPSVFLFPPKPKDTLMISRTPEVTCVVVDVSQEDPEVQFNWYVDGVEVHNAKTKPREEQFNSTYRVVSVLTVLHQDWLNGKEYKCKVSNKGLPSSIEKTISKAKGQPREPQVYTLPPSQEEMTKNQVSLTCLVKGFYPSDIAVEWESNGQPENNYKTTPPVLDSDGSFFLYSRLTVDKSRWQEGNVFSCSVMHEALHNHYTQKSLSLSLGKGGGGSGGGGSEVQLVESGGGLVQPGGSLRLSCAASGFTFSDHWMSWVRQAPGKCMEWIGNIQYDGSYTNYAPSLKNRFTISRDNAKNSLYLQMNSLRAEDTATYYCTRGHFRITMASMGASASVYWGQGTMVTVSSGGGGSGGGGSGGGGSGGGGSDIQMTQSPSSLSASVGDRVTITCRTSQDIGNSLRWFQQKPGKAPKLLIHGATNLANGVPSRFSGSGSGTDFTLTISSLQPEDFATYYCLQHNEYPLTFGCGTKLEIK
# light: DIVMTQSPDSLAVSLGERVTMRCKSSQSLSWSENQNNYLSWYQQKPGQPPKLLIYGASIRESGVPDRFSGSGSGTDFTLTISSVQAEDVGVYYCQHNHGSFLPYTFGQGTKLEIKRTVAAPSVFIFPPSDEQLKSGTASVVCLLNNFYPREAKVQWKVDNALQSGNSQESVTEQDSKDSTYSLSSTLTLSKADYEKHKVYACEVTHQGLSSPVTKSFNRGEC
# notes: Symmetrical structure: PL1642-T2353-scFv-HC and HuPL1642-VL2
# B5: HuPL16-42 (antibody, IgG4, V domains shown)
# VH: QVQLVQSGAEVAKPGASVKMSCKASGYTFTRNTMHWIKQAPGQRLEWIGFIDPHNTYTRYNQKFKDRATLTADTSASTAYMELSSLRSEDTAVYYCARWPMDYWGQGTLVTVSS
# VL: DIVMTQSPDSLAVSLGERVTMRCKSSQSLSWSENQNNYLSWYQQKPGQPPKLLIYGASIRESGVPDRFSGSGSGTDFTLTISSVQAEDVGVYYCQHNHGSFLPYTFGQGTKLEIK
# notes: also called humanized anti-PD-L1 antibody HuPL16-42
# B6: HuPL1642-T2353-ScFab (bispecific antibody, human IgG4 S228P, kappa)
# chain 1: DIQMTQSPSSLSASVGDRVTITCRTSQDIGNSLRWFQQKPGKAPKLLIHGATNLANGVPSRFSGSGSGTDFTLTISSLQPEDFATYYCLQHNEYPLTFGCGTKLEIKRTVAAPSVFIFPPSDEQLKSGTASVVCLLNNFYPREAKVQWKVDNALQSGNSQESVTEQDSKDSTYSLSSTLTLSKADYEKHKVYACEVTHQGLSSPVTKSFNRGECGGGGSGGGGSGGGGSGGGGSGGGGSGGGGSGGGGSGGGGSEVQLVESGGGLVQPGGSLRLSCAASGFTFSDHWMSWVRQAPGKCMEWIGNIQYDGSYTNYAPSLKNRFTISRDNAKNSLYLQMNSLRAEDTATYYCTRGHFRITMASMGASASVYWGQGTMVTVSSASTKGPSVFPLAPCSRSTSESTAALGCLVKDYFPEPVTVSWNSGALTSGVHTFPAVLQSSGLYSLSSVVTVPSSSLGTKTYTCNVDHKPSNTKVDKRVESKYGPPCPPCPAPEFLGGPSVFLFPPKPKDTLMISRTPEVTCVVVDVSQEDPEVQFNWYVDGVEVHNAKTKPREEQFNSTYRVVSVLTVLHQDWLNGKEYKCKVSNKGLPSSIEKTISKAKGQPREPQVYTLPPCQEEMTKNQVSLWCLVKGFYPSDIAVEWESNGQPENNYKTTPPVLDSDGSFFLYSRLTVDKSRWQEGNVFSCSVMHEALHNHYTQKSLSLSLGK
# chain 2: DIVMTQSPDSLAVSLGERVTMRCKSSQSLSWSENQNNYLSWYQQKPGQPPKLLIYGASIRESGVPDRFSGSGSGTDFTLTISSVQAEDVGVYYCQHNHGSFLPYTFGCGTKLEIKRTVAAPSVFIFPPSDEQLKSGTASVVCLLNNFYPREAKVQWKVDNALQSGNSQESVTEQDSKDSTYSLSSTLTLSKADYEKHKVYACEVTHQGLSSPVTKSFNRGECGGGGSGGGGSGGGGSGGGGSGGGGSGGGGSGGGGSGGGGSQVQLVQSGAEVAKPGASVKMSCKASGYTFTRNTMHWIKQAPGQCLEWIGFIDPHNTYTRYNQKFKDRATLTADTSASTAYMELSSLRSEDTAVYYCARWPMDYWGQGTLVTVSSASTKGPSVFPLAPCSRSTSESTAALGCLVKDYFPEPVTVSWNSGALTSGVHTFPAVLQSSGLYSLSSVVTVPSSSLGTKTYTCNVDHKPSNTKVDKRVESKYGPPCPPCPAPEFLGGPSVFLFPPKPKDTLMISRTPEVTCVVVDVSQEDPEVQFNWYVDGVEVHNAKTKPREEQFNSTYRVVSVLTVLHQDWLNGKEYKCKVSNKGLPSSIEKTISKAKGQPREPQVCTLPPSQEEMTKNQVSLSCAVKGFYPSDIAVEWESNGQPENNYKTTPPVLDSDGSFFLVSRLTVDKSRWQEGNVFSCSVMHEALHNHYTQKSLSLSLGK
# B7: SHS006-T-Hu23-53 (antibody, IgG4, V domains shown)
# VH: EVQLVESGGGLVQPGGSLRLSCAASGFTFSDHWMSWVRQAPGKTMEWIGNIQYDGSYTNYAPSLKNRFTISRDNAKNSLYLQMNSLRAEDTATYYCTRGHFRITMASMGASASVYWGQGTMVTVSS
# VL: DIQMTQSPSSLSASVGDRVTITCRTSQDIGNSLRWFQQKPGKAPKLLIHGATNLANGVPSRFSGSGSGTDFTLTISSLQPEDFATYYCLQHNEYPLTFGQGTKLEIK
# notes: Humanized; also called SHS006-HuT23-53; HuT23-53
# B8: humanized antibody 22G2 (antibody, IgG4, V domains shown)
# VH: QVQLQESGPGLVKPSETLSLTCTVSGGSVSSGIYYWSWIRQPPGKGLEWIGYIYYSGSTNYNPSLKSRVTISVDTSKNQFSLKLSSVTAADTAVYYCARDYYVSGNYYNVDYYFFGVDVWGQGTTVTVSS
# VL: EIVLTQSPATLSLSPGERATLSCRASQSVSSYLAWYQQKPGQAPRLLIYDASNRATGIPARFSGSGSGTDFTLTISSLEPEDFAVYYCQQRSNWPPLFTFGPGTKVDIK
# notes: Expressed from pHR-22G2-hG4 (IgG4 heavy chain) and pHR-22G2-hk (light chain); from US 2016/0176963A1; also called positive control antibody
# B9: SHS006-T-Hu17-31 (antibody, IgG4, V domains shown)
# VH: QVTLKESGPVLVKPTETLTLTCTFSGFSLRTYGLGVGWIRQPPGKALEWLANIWWDDDEYYNPSLKNRLTISKDTSKSQAVLTMTNMDPVDTATYYCARIARPHYYWDGRYILDVWGQGTTVTVSS
# VL: DIVMTQSPLSLPVTPGEPASISCRSSKSLLHSNGITYLSWYLQKPGQSPQLLIYQISNLASGVPDRFSGSGSGTDFTLKISRVEAEDVGVYYCMQFLEVPYTFGQGTKLEIK
# notes: Humanized
# B10: SHS006-17CHI (antibody, V domains shown)
# VH: QVTLKESGPGILQPSQTLSLTCTFSGFSLRTYGLGVGWIRQLSGKGLEWLANIWWDDDEYYNPSLKNRLTISKDTSNNQAFLKITNVDTADTATYYCARIARPHYYWDGRYILDVWGQGASVTVSS
# VL: DIMMTQSPLSVAVTPGESASISCRSSKSLLHSNGITYLSWYLQRPEKSPQLLIFQISNLASGVSDRFSGSGSGTDFTLIISKVETEDVGIYYCMQFLEVPYTFGAGTKLELK
# notes: as for B2
# Tests used:
# [1] = target: T1, TIGIT on TIGIT/NFAT-reporter-Jurkat cells (UniProt Q495A1 22-244, limits assumed); test: cell-based or functional assay
# T1 sequence (looked up): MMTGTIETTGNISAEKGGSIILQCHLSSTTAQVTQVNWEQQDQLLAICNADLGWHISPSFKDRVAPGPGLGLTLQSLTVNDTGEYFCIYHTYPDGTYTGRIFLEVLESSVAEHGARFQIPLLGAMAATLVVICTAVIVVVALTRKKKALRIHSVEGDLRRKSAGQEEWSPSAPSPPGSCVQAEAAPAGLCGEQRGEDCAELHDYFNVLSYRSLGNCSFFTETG
# [2] = target: T2, full-length TIGIT on hTIGIT-CHO-K1 cells (human, UniProt Q495A1 22-244); test: FACS on hTIGIT-CHO-K1 cells
# T2 construct: CHO-K1 cells stably transfected with pTargeT-TIGIT; also called TIGIT on cell surface
# T2 sequence: T1 sequence (looked up)
# [3] = target: T3, Human TIGIT-His protein (Sino Biological, 10917-H08H) (human, UniProt Q495A1 22-141); test: ELISA, human TIGIT-His coated
# T3 sequence (looked up): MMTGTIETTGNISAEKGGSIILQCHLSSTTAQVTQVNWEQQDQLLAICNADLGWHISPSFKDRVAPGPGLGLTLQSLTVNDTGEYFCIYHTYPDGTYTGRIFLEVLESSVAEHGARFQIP
# [4] = target: T4, TIGIT-mFc (extracellular region of human TIGIT with mIgG1-Fc tag) (human); test: ELISA, blocking of TIGIT-mFc binding to coated CD155-hFc (competitor CD155-hFc)
# T4 construct: A bought TIGIT-mFc (Acro Biosystems TIT-H5253) is used for immunization; also called recombinant humanized TIGIT-mFc
# T4 chain: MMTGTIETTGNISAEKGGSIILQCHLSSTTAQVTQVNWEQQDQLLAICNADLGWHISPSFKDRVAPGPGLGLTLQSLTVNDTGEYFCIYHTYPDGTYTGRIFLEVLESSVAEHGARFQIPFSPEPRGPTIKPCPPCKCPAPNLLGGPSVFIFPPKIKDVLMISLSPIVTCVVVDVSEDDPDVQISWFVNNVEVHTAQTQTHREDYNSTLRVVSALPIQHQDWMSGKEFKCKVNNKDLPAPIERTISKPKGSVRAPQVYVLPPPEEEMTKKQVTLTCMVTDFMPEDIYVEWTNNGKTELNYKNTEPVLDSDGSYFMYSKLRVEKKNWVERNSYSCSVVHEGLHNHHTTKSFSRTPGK
# PD-L1-his = target: T5, PD-L1-his (human, UniProt Q9NZQ7 19-238, limits assumed); test: BLI, Fortebio Octet RED96, antibody on AHC sensor, PD-L1-his in solution
# T5 construct: also called human PD-L1 protein
# T5 sequence (Q9NZQ7 19-238 limits assumed): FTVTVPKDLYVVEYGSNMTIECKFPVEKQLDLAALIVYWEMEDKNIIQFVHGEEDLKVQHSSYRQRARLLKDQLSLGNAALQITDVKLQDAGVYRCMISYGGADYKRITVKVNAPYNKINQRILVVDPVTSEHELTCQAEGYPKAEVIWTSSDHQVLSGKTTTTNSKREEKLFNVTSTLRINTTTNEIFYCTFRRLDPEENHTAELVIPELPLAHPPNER
# [5] = target: T6, human PD-L1 on hPD-L1-CHO-K1 cells (human, UniProt Q9NZQ7 19-290); test: FACS on hPD-L1-CHO-K1 cells
# T6 construct: whole, on cells; The making of this cell line is not described
# T6 sequence (Q9NZQ7 19-290): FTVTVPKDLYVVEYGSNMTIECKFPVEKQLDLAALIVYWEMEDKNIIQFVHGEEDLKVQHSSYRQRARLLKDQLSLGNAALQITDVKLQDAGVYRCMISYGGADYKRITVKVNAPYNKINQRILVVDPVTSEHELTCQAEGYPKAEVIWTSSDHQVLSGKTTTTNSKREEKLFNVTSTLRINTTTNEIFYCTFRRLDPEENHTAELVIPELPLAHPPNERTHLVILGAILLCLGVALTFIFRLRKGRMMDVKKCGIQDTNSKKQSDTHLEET
# [6] = target: T7, TIGIT-his (extracellular region of human TIGIT protein fused with his) (human, UniProt Q495A1 22-141); test: BLI, Fortebio Octet RED96, antibody on AHC sensor, TIGIT-his in solution
# T7 construct: also called antigen TIGIT-his
# T7 sequence: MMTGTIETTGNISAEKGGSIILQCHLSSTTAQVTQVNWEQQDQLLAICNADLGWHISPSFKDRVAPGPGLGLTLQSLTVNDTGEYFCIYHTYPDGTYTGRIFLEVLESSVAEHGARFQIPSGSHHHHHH
# [7] = target: T4, TIGIT-mFc (extracellular region of …); test: FACS, blocking of TIGIT-mFc binding to cells (TIGIT/CD155; cells printed as hTIGIT-CHO-K1)
# [8] = target: T7, TIGIT-his (extracellular region of …); test: BLI, Fortebio Octet RED96, SA sensor
Binder,EC50 [2] [nM],EC50 [3] [nM],IC50 [4] [nM],Kd (PD-L1-his) [nM],koff (PD-L1-his) [s⁻¹],kon (PD-L1-his) [M⁻¹ s⁻¹],Kd [6] [nM],koff [6] [s⁻¹],kon [6] [M⁻¹ s⁻¹],other results
B1,–,–,–,–,–,–,–,–,–,"EC50 (nM), luciferase expression induced by anti-TIGIT antibody [1]: 0.019 nM; Top (fold), luciferase expression induced by anti-TIGIT antibody [1]: 1.62 fold"
B2,0.235,1.69,1.04,–,–,–,–,–,–,–
B3,–,–,–,1.49,0.000276,185000,–,–,–,–
B4,–,–,–,2.08,0.000326,157000,2.74,0.00239,872000,EC50 [5]: 0.955 nM; IC50 [7]: 1.68 nM
B5,–,–,–,1.9,0.000225,119000,–,–,–,–
B6,–,–,–,1.15,0.000212,184000,13.9,0.00487,350000,IC50 [7]: 1.51 nM
B7,0.199,2.43,1.01,–,–,–,2.43,0.00192,792000,Kd [8]: 1.14 nM; koff [8]: 0.00151 s⁻¹; kon [8]: 1.33e+06 M⁻¹ s⁻¹
B8,0.411,–,1.34,–,–,–,–,–,–,"EC50 (nM), luciferase expression induced by anti-TIGIT antibody [1]: 0.104 nM; Top (fold), luciferase expression induced by anti-TIGIT antibody [1]: 1.59 fold"
B9,0.303,1.59,0.954,–,–,–,–,–,–,Kd [8]: 0.327 nM; koff [8]: 0.000239 s⁻¹; kon [8]: 731000 M⁻¹ s⁻¹
B10,0.408,1.58,1.03,–,–,–,–,–,–,–

# Source: patent US20240262915A1 (NANJING SANHOME PHARMACEUTICAL, published 2024)
